The test concerns the target OptoSTIM1 (CRY2 E281A) (Arabidopsis thaliana) (UniProt Q13586). In words: cell-based or functional assay.

In turn, “OptoSTIM1 (CRY2 E281A) (from UniProt Q13586 238-668)” yielded an activation half-maximal time (R-GECO1 level upon light stimulation) of 62 s and an inactivation half time (R-GECO1 level after light removal) of 7 min.

These data come from patent US20220002362A1.
